Assay results taken from paper PMC4138078 (2014).
Ends that are not written are not given here.

Tests used:
[1] = biological target: T1, CAL (CFTR-associated ligand) PDZ (Homo sapiens, UniProt Q9HD26); experiment: ITC
[2] = biological target: T1, CAL (CFTR-associated ligand) PDZ; experiment: SPR

Binder	Kd [1] [µM]	Kd [2] [µM]
ANSRWPTSKI [iCAL36 P-1 BB-K]	20.7	20
ANSRWPTSK(Ac)I [iCAL36 P-1 Ac-K]	26.4	39.5
ANSRK(Ac)PTSII [iCAL36 P-5 Ac-K]	–	298
ANSRWPTSKI [iCAL36 P-1 FB-K]	12.8	27.9
ANSRWK(Ac)TSII [iCAL36 P-4 Ac-K]	49.4	64.6
ANSRWPTSKI [iCAL36 P-1 Tfa-K]	34.5	22.3
ANSRWPK(Ac)SII [iCAL36 P-3 Ac-K]	91.9	122
